Data: publication PMC4906247, “Death-Associated Protein Kinase Activity Is Regulated by Coupled Calcium/Calmodulin Binding to Two Distinct Sites” (Structure(London, England:1993), 2016)

Biological target: the molecule itself
Test: crystal structure; hDAPK1 CD + ARD (2.0 Å), hDAPK2 CD + ARD (1.47 Å) and hDAPK3 CD (3.1 Å) crystallised by vapor diffusion; homodimers in the crystals

Row | Protein | binding result
1 | human death-associated protein kinase 3, catalytic domain (hDAPK3 CD, residues 1-274) (domain or fragment, UniProt O43293 1-274, looked up, death-associated protein kinase 3, human, CD, residues 1-274; Dimer in the crystal; also called hDAPK3 CD construct; source: E. coli Rosetta (DE3) pLysS, purified (glutathione Sepharose, TEV cleavage, SEC); not shown: GST, N-terminal, cleaved) MSTFRQEDVEDHYEMGEELGSGQFAIVRKCRQKGTGKEYAAKFIKKRRLSSSRRGVSREEIEREVNILREIRHPNIITLHDIFENKTDVVLILELVSGGELFDFLAEKESLTEDEATQFLKQILDGVHYLHSKRIAHFDLKPENIMLLDKNVPNPRIKLIDFGIAHKIEAGNEFKNIFGTPEFVAPEIVNYEPLGLEADMWSIGVITYILLSGASPFLGETKQETLTNISAVNYDFDEEYFSNTSELAKDFIRRLLVKDPKRRMTIAQSLEHSW | binds
2 | human death-associated protein kinase 1, catalytic domain and most of the autoregulatory domain (hDAPK1 CD + ARD, residues 1-312) (domain or fragment, UniProt P53355 1-312, looked up, death-associated protein kinase 1, human, CD and most of the ARD, residues 1-312; Dimer in the crystal; also called hDAPK1 CD + ARD construct (1-312); source: E. coli BL21(DE3), purified (Ni-NTA, TEV cleavage, SEC); not shown: His6, N-terminal, cleaved) MTVFRQENVDDYYDTGEELGSGQFAVVKKCREKSTGLQYAAKFIKKRRTKSSRRGVSREDIEREVSILKEIQHPNVITLHEVYENKTDVILILELVAGGELFDFLAEKESLTEEEATEFLKQILNGVYYLHSLQIAHFDLKPENIMLLDRNVPKPRIKIIDFGLAHKIDFGNEFKNIFGTPEFVAPEIVNYEPLGLEADMWSIGVITYILLSGASPFLGDTKQETLANVSAVNYEFEDEYFSNTSALAKDFIRRLLVKDPKKRMTIQDSLQHPWIKPKDTQQALSRKASAVNMEKFKKFAARKKWKQSVRLI | binds
